Results taken from the domain aggregation screens of Martell et al. (2025).

experiment: soluble fraction after stress (log2 fold change); higher = more stays soluble; pooled small domains, quantitative proteomics; settings: stress: 50 degC
How it was run: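 Each library was heated to 50°C as a stress step. The libraries, made up of small protein domains, were pooled and analysed at high throughput by quantitative proteomics. The reported value is the base-two logarithm of the fold change in each protein's soluble amount after stress, taken as a measure of aggregation propensity. The higher the value, the more protein stays in solution.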

| Sequence | soluble fraction (log2) |
| --- | --- |
| HMDSIQMKNNSILYYGNTAGYLDAKRNTAVVDPMFRTDEMESYLSEQKGLSVEWASGTYDRLT | 0.149 |
| HMGARWPIQDRPLTATEAAAVRRMYAGGLPHGRSKNSVITEVWGDLSNKPKRLDWLNQALEGGA | 0.184 |
| HMAAPELLTVRERQVAALISDGLSNQQIAHRLHLEVTTVKAHIGSIFNRLDMNNRVQIAIWAHDRQLVFS | -0.266 |
| HMNAEQLAQVRRQKIGFIFQDFRLFPEYTVRDNILIPFYLDHRAPDEQMLHKLTGILGIAGKLHSRPAQL | -0.0698 |
| HMEFNQAVQDVNELSMQYAKSDVLWPEFEPKVLAFAKNELSQMPPNQWKFALQTFYNGLKQAA | -0.352 |
| HMPSSFLVKVTADALNIRSGPGVANRITGTIKDKGTYTIVDTKDDWGKLKSGVGWIHLGYTKRLD | -0.33 |
| HMEQETVTVPDLVGKDVVAAQAELHEMGLSGKPDGTGTTVVSQFPVAGARVLKHTNVILYTED | -0.0147 |
| HMPEVYPFEVAEDDAGKRLDVFLSEEIEEFTRSFIQKLIAGGLASVNRAPARASYRVKPRDLVELQVPE | -0.448 |
| HMGGEPKALLFAGVETREMAEITQRLEAADIPYEIREDGGSIYVARSEVFNARMMLSADGLPS | -0.109 |
| HMKGILVPASSIISDGDKNYVWTVEKGKAKKVEVTLGNADAENQEISSGLTKDSKVITNPTDSLKDGQEV | 0.162 |
| HMHQAADFAGFITFNKDGVEQFSFGKYKNQTVVSVLEKDPGYYSWIQNADFPLYTKKILTAIRLAM | -0.577 |
| HMRKSNADALDGKTGIVKEEIKTGGYGYVGIDGDMWRSISESGEAIPAGTKVVVISHESIILTVKPA | -0.315 |
| HMQQLAEQIPTDRPYISIAEAVVLFGISRDTIYRQIRKGNIPAVNLGERLTRISRIHIEAMFPKV | -0.563 |
| HMNSLQLGSRGPTVSALQAKLNTMLVPSPRLVADGSFGPKTAQAVKAFQQMKRLVADGVVGPKTAAALGLS | -0.00877 |
| HMSEPRYRQLATILAQEIRSNHSAGDQLPSEQALAKRFEVNRHTVRRAVDELVAAGMVTRHQGWGTQVV | -0.0244 |
| HMYIDLHEIWKSLTDEEQTVVKLLETEPAHVDTLIENSQIPASRILATLTLLEVRGIVKRLPGRMFSLAD | -1.45 |
| HMNIEIIEVQEESTPSEISKIISTESTKIIEDLLNLGVMASLETPLKNQDIEKLLEGYGYIVDIKP | -0.372 |
| HMTDSDTQDIDVGELRVGHFVFLDLSWIRHPFPLSSFKIQSAEQIKTIRSLGLRRIRYSPGRSGP | -1.18 |
| HMKHSLNHLGLWLLPELSRRDIQLREFAHLLGTTSQGLSDLLRGQRFSSHTLAQWQLRFQEKLDEIDQAS | -1.11 |
| HMYDNTVTKYVNSLSVYVRKGPSTSDEIVTSLIKDTDVTVVGENGEWYKIKYKEFEGYIYKNLLSDNKT | -0.254 |
| HMVTDSGEIEKLVDEVIDNNPDQVQQFREGKQQVLSYLVGQAMKLSRGKANPNQVNQFLRDKL | 0.291 |
| HMWPQIAGFADRFGLSDTERRIVTLMSHGRSRKIIASTLGYSQNTIRNYTRNIYAKAGVHSKQELLDLLDP | -2.13 |
| HMLSTGIIIGDNVALRKTASSNGGIITRLDEGTVVKILASNVNAEWYQVEAGTKTGYVNRLYVNID | -0.293 |
| HMKKHALFTLFKHHNANGTTVWYARFWDDATQRYAIARSTGVLAQGKRERHDEAITVAREMASSIQFS | -2.6 |
| HMQNYLEVLRLHELGMGQRKIAQQVHTSRDTIRKIIAIAENQGLNYSNLIGKTDNELSKVFG | -0.307 |
| HMATESYYVLKADVPAKTLVTQEMVEEIKVSKGGAPVNSIKIDNIKEKGVYTSIPLLKGDVLSASNTG | 0.00692 |

| Sequence | soluble fraction (log2) |
| --- | --- |
| HMHDLGEQIIEKLRASGGISTLTDKSDPDAIYRQFKVSKKKYKQALGTLYKSRRITLAPNQIKLA | -0.129 |
| HMQTTPAGHELLIRYFANGNIRERGMMKDGKRNGIWIFYDESGMEIRKTKYKMGKIISDYDLN | -1.07 |
| HMDAYLPETVQKLLDVMDFDVPYSAAQLMEKLGLKSRASFRKLYLLPALEKNLIAMGVPDKPTSRNQTYIR | -0.417 |
| HMAKVSVNIILKDGVDQTTFVNDVTSNTEVDLKNQLISLPQMVVLSVEEDYINTLKSHSSISILELDE | -0.00499 |
| HMSVFTDIYHQADHETKLMLIHEIKIVGDEKEFRLLKSIIDSTSNDLSKEANDALNAIKIRLALSK | -2.49 |
| HMSERQTGTVKWFNNAKGFGFITMADRPDDIFVHFRAIQGDGYRSLNEGEEVEFSLVEGPKGLQAEEVTK | 0.037 |
| HMDVQPHIYLRKLDQFWPADLHSLILYTLDGRRLWSADSGNIPALPHRASSLVILEATWDNGQRTRRKQFL | -1.63 |
| HMARHIHFEVHVQQAGRWSIHAQFGAGQREKAIEEAKKIEKTPGFDSVKVVKETYDSDLGNHQDTTIYRGP | -0.506 |
| HMTDAEQHEALLFKQVVDGLPQTLRDTFVLSRHAGMTYAEISAHTGTPIKTVESRMAKALELIAQRMR | -0.67 |
| HMDNRLFKMLYYLLDKERATAPELAAEFEVSTRTIYRDVEALSSAGIPIYAEPGRNGGIYLLQD | -2.21 |
| HMQAMDYEGFKKEILKMSDIDLSLYKEKQMKRRIDSLIRKNGYEHYEDYVQALKQDSGLYNEFINYLTI | 0.439 |
| HMTKDEIIIQSIIDAAKKLMQQYGLNKTTMEDIAKEAGKGKSTLYHYFKSKEEIFDQVINQEID | -0.0722 |
| HMQDTVKNVFGAFTIFTDKPFAIGDTINVNGLEGTVVDVGMRSTQILGYDRRITSYPNYKITDSSIVNISS | -0.0701 |
| HMDYNYLVFVTNTGPRSIAVEDLEMTVSDGKLVVSSGADGETFDLSTLTKMYFSDAAVVSINDV | -0.996 |
| HMQGATVYIKSDDIGKTTNEQGSFNFDKLKKNRYTLEISFIGYETKNLQAYTDRENIVQLNRKS | 0.248 |
| HMTLDDSFYQKADEIIANHTKEERSLIPIIQDIQAEYRYLPPELLTYVAKEIGITDARAYSVASFYENFS | -0.446 |
| HMTSEVPVGSNVRIRASTLAGERDFEGTMLPPAGEGLTTLKLVNGYNLSYPSKDVLDIEFLGGAGE | 0.057 |
| HMDINEIILKVASEKKTFKTSDVLEALDNNYTKQHVSALISAMVKKGILVKAGSTAKSTYALPENASLL | -0.264 |
| HMPLEKGVVILDVTPSSAKVAVDGTSVETTYPLRLSAGLHQLSAEADGYDSITEYFKVETEKTTVTLDLSK | 0.105 |
| HMSNWYGTVVKIQPRPNAQAADTAVVKLLDGSEHRFPVWADHLTTIEVGSRLKKLSGGWDPVLMDPEETF | -0.454 |
| HMLDYKSALQELLQAQRRSRPRYEVISTEGPDHERVFEVAVWLDNEELGRGKGRSKREAEHQAAQAALTQL | 0.068 |
| HMPKHHIESVIPENFAGERLDKVLAVLWGTFSRAQLTRWIRDGSLLLDGHKVKPNTKVDGSEKIVLQAEVA | -0.891 |
| HMSKHAIQNELEKIEGIGKQTADSLLKEFKSVKKLRTLPLSEIEKVIGKSKATIVFEALHKDK | 0.133 |
| HMEKKDTYTVKNGDSLWGIARTELGDGGRFREIYTLNADTIEAEAKKRGRSSSSEGHWIYPGSVLRLP | 0.0469 |
| HMRGSRIFSGDVSPLTLPANSPFFSGYTEFKPGDVYVERSATNIAMWEWKSQPGGYTWVKTADIA | -0.169 |
| HMEDQITNQQFTMTKQSILDLLVKKSYPPYELANELHLKKEEVLPIIRFLIAENEIHFKDGMLHLPH | -0.167 |

| Sequence | soluble fraction (log2) |
| --- | --- |
| HMKPNEYVSGETFPYLGKNYRLKVLHGSENSVRLKGGYFITTISNRDSQLSTVKSLLEDWYQTHADK | 0.0439 |
| HMQTKNYVYFNNTENWSTVNVYVWSSKDSTYMSWPGKAMESIGNNTYRFELPNGAEYAIFNNGSAQTVD | -0.137 |
| HMGESFPYVAYATDSVRLRARPSSSATILTVIRKGDAVLITGADGSYKIVEYEGRKGYVVSAFLSSQET | -0.857 |
| HMKPAFTPYVVKVTADVLNVRSGPGTNYGITTKVKKGEAYTIVEEKNGWGKLKSGAGWISLEYTVK | -0.109 |
| HMPPPVERAIRKLGHDLSLARRRRRISQDSMAQRMGASVSTVRRIEKGDPRIPIHFIARAMMILGDLKAL | -0.0422 |
| HMKNTADRVYENLFHMLVSGDYAPGDRIPSEHELKERFNVSRNTIRAALNRMNALGIIETRQGDGTYLKG | -0.243 |
| HMGGNDALEIAKSNPQVIEVLGEPVTKDGMGSYSVNYKNGHKTSEATIPIEGPNGTATLHVKTSGSDDAL | 0.261 |
| HMQSLIVPVPKPEDDPVYKDGIKQDPVEVVSIWLGRDYLNMILNLKVSTGKGHTFGIVEDVS | 0.0321 |
| HMNQKTQMTKQILAESLKKLMLHHSFEKITIKDITDAAGFIRPTFYNHFKDKYDLVEWIFTEEI | -0.364 |
| HMIVDINDVRIDKYIADNTDYSRNLILNLIKNGDILVNDSKIKPSYKVKQGDKITINNVKTD | 0.227 |
| HMLAQISDEGAIGAVVARVLDAHPNEVARYHAGEEKVAKFLMGAAMRELRGKGDPAVVQRLLSEGLDARRV | 0.119 |
| HMAIDPLLDKGYEQYDKGEFTEAVKSFNRAIEIDPKNAEAHFLRAMTYQGLALSKLAVADLEKAIV | 0.136 |
| HMSWEELLEHLEKAAERGEEVRIAGVTLHDEEDFKRALRWLKEWL | -1.93 |
| HMQENFYMILESEERRVLDVLVADQPESVATFLKLVSPFPNYKIILEHINEKALDFYEETVI | -0.303 |
| HMGQELTPVERTALDIAARDGKVSTRILAQEAGIGLRTASKTLAALAERGLLTWHGTSRRDPQQHYTS | 0.00201 |
| HMILESREKYLGEVLEVLVEEEKEGEYFGYSQNYLRVKFKLEEKNLINQLINIKIKSIEDDILIGEKEN | -1.46 |
| HMIFSIIPGQIRLTKMEIADGYLVLYGFTPSKEIYNLHLNPALKSIFTSSETSFIPVSGGLKFMSTNKL | -1.78 |
| HMRALPFSFANRHGVLIREISDGVAHAVYRIGSSPLGLAEARRFVGMPLMLTPVAREAFDSLLQQTYEQG | -1.6 |
| HMSEKELTDLIERIKERRLKLEMSYQDLSDATGISKSTLQRYETGYIKKVPINQIEILAKALHTTPSYLMG | -0.238 |
| HMSIQELMNSKDLSSFKVEMLSDEDIAKYKGLLQNSGLTEAQAEQMALQRGLPSSELLKLKARLSGI | 0.128 |
| HMKRIFEKKVVTESLNGLRLDKAAATLFADFSRNELGQWIKDEALLVNGKAKKVKEKVSEGDVLALDVELI | 0.0881 |
| HMRKTLSQEAYEKIKQNLEDGVYQGYINGRQVARDLDIGFTPVREAFLQLQSEGLIRKEDNVGYFV | 0.139 |
| HMNPIEAQIEELKNKDQKTAYQALKHLLAISETRAEVSYYFDRFVALLQDPQSYVRTRGLLLIGA | 0.271 |
| HMRMTPRQALDDLIREREETYAAVSRLLGRNTAYIQQYIKRGTPARLDQSDIAQLALHFDVPAKLLGGKE | -0.943 |
